Test results from patent publication US20140096274A1 (published 2014).

T1: murine RANK-Fc (mouse, UniProt O35305 31-214)
T1 construct: also called mRANK-Fc; mRANK-FC; not shown: Fc part of the bought fusion; not described
T1 sequence (looked up): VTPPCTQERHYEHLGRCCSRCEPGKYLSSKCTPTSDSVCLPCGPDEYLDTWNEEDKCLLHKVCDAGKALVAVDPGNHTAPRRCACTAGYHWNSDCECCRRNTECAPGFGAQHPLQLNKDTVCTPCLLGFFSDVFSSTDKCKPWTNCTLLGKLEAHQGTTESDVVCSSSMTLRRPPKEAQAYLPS

T2: human RANK-Fc (human, UniProt Q9Y6Q6 30-212)
T2 construct: also called hRANK-Fc; hRANK-FC; not shown: Fc part of the bought fusion; not described
T2 sequence (looked up): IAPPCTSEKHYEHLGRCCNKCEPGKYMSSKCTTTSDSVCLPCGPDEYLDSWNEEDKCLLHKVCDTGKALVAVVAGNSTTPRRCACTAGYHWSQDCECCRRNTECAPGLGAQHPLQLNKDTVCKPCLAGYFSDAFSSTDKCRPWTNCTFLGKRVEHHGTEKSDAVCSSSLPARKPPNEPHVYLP


Experiments:
murine RANK-Fc [1] = biological target: T1, murine RANK-Fc; assay: ELISA, immobilized mRANK-Fc, % binding normalised to the highest concentration
human RANK-Fc [2] = biological target: T2, human RANK-Fc; assay: SPR (Biacore), hRANK-Fc captured on protein A at 40 RU, 37 C, 1:1 Langmuir fit
Procedure: A Biacore experiment was performed to determine the kinetics of binding of the dimeric variants. hRANK-FC (Sigma) was captured in flow cell 2 at a level of 40 RU by a 60 s injection pulse of a 0.7 ug/ml hRANK-FC solution at a flow rate of 50 uL/min. Flow cell 1 served as reference cell. Subsequently, serial dilutions ranging from 562 nM to 100 pM of murine RANKL wt (R&D systems), or the purified RANKL dimers mD1 and mD2 were injected over both flow cells at 50 uL/min and 37° C. Binding was measured in real time. After each cycle the protein A surface was regenerated with a 30 s pulse of 10 mM Glycine pH 1.5. Kd values were calculated by fitting the data to a langmuir 1:1 binding model using the BIAevaluation software as described before (30). (Table 6 and FIG. 6).
Kinetic binding parameters were measured in real time using SPR. RANKL dimer binding curves were recorded using concentrations ranging from 100 pM to 562 nM dimer 1 (mD1) or dimer 2 (mD2), trimeric murine wild-type RANKL was used as a control. Measurements were performed at 37° C. The dissociation constants (KD) were determined by fitting the data to a Langmuir 1:1 interaction model. […] The binding off-rate constant (koff) of wild-type murine RANKL was ˜2 to 6 fold slower than for dimer 1 and dimer 2.

murine RANK-Fc [3] = biological target: T1, murine RANK-Fc; assay: ELISA dose response on RANK-Fc coated wells, global four parameter logistic fit
Procedure: The ability of dimer 1 and dimer 2 to compete with wild-type murine RANKL for binding to mRANK was investigated using a competitive ELISA. […] After washing off unbound RANKL, mRANK bound flag-mRANKL was detected by an anti-flag antibody. A RANKL dimer concentration dependant decrease in mRANK binding and right shift in the EC₅₀ of flag-mRANKL was observed (FIGS. 7 and 18B), indicating a competitive inhibition based mechanism. IC₅₀ values for dimer 1 and dimer 2 were calculated to be 4 nM by a global fit of the individual dose response curves using a four parameter logistic model.
As the concentration of flagRANKL WT used in the competitive ELISA was above its KD for mRANK-Fc, for mD2 also an EC₅₀ shift experiment was performed. A dose-response curve of 0-50 nM flagRANKL WT binding to RANK-Fc was recorded in the presence and absence of various fixed concentrations of D2 (3, 5, 11, 22 or 43 nM) (FIG. 18B and FIG. 7). […] Upon a global fit of the individual dose response curves using a four parameter logistic model, an EC₅₀ for flag-mRANKL WT of 0.6 nM (±0.04 nM) was obtained and for mD2 an A₂ value of 4 nM (±0.5 nM) was calculated, i.e. the concentration of inhibitor required to shift the dose response curve by a factor of 2.

murine RANK-Fc [4] = biological target: T1, murine RANK-Fc; assay: SPR single cycle kinetics, mRANK-Fc captured at 20-40 RU, 1:1 fit
Procedure: (§1) Considering the high similarity between human RANKL and murine RANKL (>88%) the murine dimers were also tested for hRANK binding. Binding to hRANK-Fc and mRANK-Fc (both from R&D Systems) was recorded for five consecutive concentrations of murine flag RANKL WT, D1 (mD1) or D2 (mD2) (˜0.3-15 nM) using SPR with a single cycle kinetics based approach. The capture level of mRANK-Fc and hRANK-Fc was low (20-40 RU) in order to ensure 1:1 binding. Both WT and the D1 and D2 dimeric variants bound with high affinity towards the mRANK receptor and to the human RANK receptor (FIG. 16: Table 8).

murine RANK-Fc [5] = biological target: T1, murine RANK-Fc; assay: SPR, mRANK-Fc captured at low density on C1 chip, 1:1 Langmuir fit, mean of three experiments
Procedure: SPR measurements were performed using ˜1500-2000 RU of captured mRANK-Fc on the surface of a CM5 sensor chip (FIGS. 15B and C). This is a density that results in a mean ratio of RANKL:RANK of approx 1:3 (52). […] (Table 5, below) In contrast, the ratio of binding of RANKL variants mD1 and mD2 to mRANK-Fc seems hardly to be affected by receptor density (Table 5). The values obtained after injecting 500 nM of the dimeric variants correlate to binding of 1.5 monomeric subunits by mD1 and 1.6 monomeric subunits by mD2.
Kinetic binding parameters were also measured for mD1 and mD2 binding to mRANK-FC in real time using SPR using murine RANKL-WT as a control (FIG. 15; table 8). RANKL dimer binding curves to mRANK-Fc captured at low density on the surface of a C1 sensorchip were recorded using concentrations ranging from 100 pM to 562 nM. At very low receptor density, RANKL proteins bind only one receptor molecule, allowing the data to be fitted to a Langmuir 1:1 interaction model (29). RANKL WT needed a very low density (<20 resonance units (RU)) to come close to a 1:1 ratio (FIG. 3A). […] Maximum binding of 5.5 RU is reached, which is slightly lower than the expected Rₘₐₓ value of 6.8 RU for a 1:1 ratio, but definitely larger than 3.4 RU, the Rₘₐₓ value expected for a binding ratio of 2 molecules of RANK per flag-mRANKL WT trimer. Similar to mRANKL WT, binding of RANKL mD1 or mD2 to mRANK-Fc results in slightly lower Rₘₐₓ values than expected for a 1:1 binding ratio: 24 RU D1 compared to 26 RU, and 20 RU D2 compared to 23 RU (FIG. 15A). These binding ratio's could be reached with mD1 and mD2 at densities of mRANK-Fc of <50 RU. The approximate 1:1 binding of RANKL proteins to mRANK-Fc allows fitting the data to the 1:1 Langmuir binding model.

human RANK-Fc [6] = biological target: T2, human RANK-Fc; assay: SPR single cycle kinetics, hRANK-Fc captured at 20-40 RU, 1:1 fit
Procedure: as §1

| Binder | EC50 (read off the curve) (murine RANK-Fc [1]) [nM] | Ka (human RANK-Fc [2]) [M⁻¹] | Kd (human RANK-Fc [2]) [nM] | koff (human RANK-Fc [2]) [s⁻¹] | kon (human RANK-Fc [2]) [M⁻¹ s⁻¹] | EC50 (murine RANK-Fc [3]) [nM] | Kd (murine RANK-Fc [4]) [nM] | koff (murine RANK-Fc [4]) [s⁻¹] | kon (murine RANK-Fc [4]) [M⁻¹ s⁻¹] | Ka (murine RANK-Fc [5]) [M⁻¹] | Kd (murine RANK-Fc [5]) [nM] | koff (murine RANK-Fc [5]) [s⁻¹] | kon (murine RANK-Fc [5]) [M⁻¹ s⁻¹] | Kd (human RANK-Fc [6]) [nM] | koff (human RANK-Fc [6]) [s⁻¹] | kon (human RANK-Fc [6]) [M⁻¹ s⁻¹] |
| --- | --- | --- | --- | --- | --- | --- | --- | --- | --- | --- | --- | --- | --- | --- | --- | --- |
| trimeric murine wild-type RANKL (R&D systems) (ligand, mouse, UniProt O35235 158-316, looked up, Bought soluble trimeric protein; also called murine RANKL wt; mRANKL WT) KPEAQPFAHLTINAASIPSGSHKVTLSSWYHDRGWAKISNMTLSNGKLRVNQDGFYYLYANICFRHHETSGSVPTDYLQLMVYVVKTSIKIPSSHNLMKGGSTKNWSGNSEFHFYSINVGGFFKLRAGEEISIQVSNPSLLDPDQDATYFGAFKVQDID | ~0.1 | 9.23e+09 | 0.11 | 8.97e-05 | 827000 | – | – | – | – | – | – | – | – | – | – | – |
| murine flagRANKL WT (wild-type mRANKL containing an N-terminal flagtag) (ligand, mouse, UniProt O35235 160-316, looked up, Trimeric; also called flag-mRANKL WT; mWT; not shown: N-terminal flagtag) EAQPFAHLTINAASIPSGSHKVTLSSWYHDRGWAKISNMTLSNGKLRVNQDGFYYLYANICFRHHETSGSVPTDYLQLMVYVVKTSIKIPSSHNLMKGGSTKNWSGNSEFHFYSINVGGFFKLRAGEEISIQVSNPSLLDPDQDATYFGAFKVQDID | – | – | – | – | – | 0.6 | 0.0315 | 0.000189 | 6.14e+06 | 4.4e+10 | 0.065 | 0.00034 | 5.9e+06 | 0.104 | 0.000575 | 5.63e+06 |
